Measured values published in doi:10.1101/2025.02.07.637128 (bioRxiv, 2025).
Where “and” joins values, the source holds several entries; their conditions need not be identical. Identical values can stand only once.

How the values were obtained:
Concanavalin A = test: resistive pulse sensing with PLY nanopores
[1] = target: the molecule itself

In the case of Concanavalin A (natural protein), the stoichiometry N (Concanavalin A) is reported as 2 and 4.

B1: Pneumolysin (PLY) toxin (natural protein)
chain: MANKAVNDFILAMNYDKKKLLTHQGESIENRFIKEGNQLPDEFVVIERKKRSLSTNTSDISVTATNDSRLYPGALLVVDETLLENNPTLLAVDRAPMTYSIDLPGLASSDSFLQVEDPSNSSVRGAVNDLLAKWHQDYGQVNNVPARMQYEKITAHSMEQLKVKFGSDFEKTGNSLDIDFNSVHSGEKQIQIVNFKQIYYTVSVDAVKNPGDVFQDTVTVEDLKQRGISAERPLVYISSVAYGRQVYLKLETTSKSDEVEAAFEALIKGVKVAPQTEWKQILDNTEVKAVILGGDPSSGARVVTGKVDMVEDLIQEGSRFTADHPGLPISYTTSFLRDNVVATFQNSTDYVETKVTAYRNGDLLLDHSGAYVAQYYITWDELSYDHQGKEVLTPKAWDRNGQDLTAHFTTSIPLKGNVRNLSVKIRECTGLAWEWWRTVYEKTDLPLVRKRTISIWGTTLYPQVEDKVEND
For B1, the “stoichiometry N” value [1] was 35 ± 2 monomers.
